Legend:
[1] = biological target: human cystatin C (Cst-3), E. coli expressed (human) (UniProt P01034); assay: SEC; gel permeation on Superdex 200 in 20 mM Tris, 150 mM NaCl, pH 7.1, after cation exchange; monomer and dimer told by elution
[2] = biological target: papain (UniProt P00784)
Sequence of UniProt P00784 (P00784 134-345): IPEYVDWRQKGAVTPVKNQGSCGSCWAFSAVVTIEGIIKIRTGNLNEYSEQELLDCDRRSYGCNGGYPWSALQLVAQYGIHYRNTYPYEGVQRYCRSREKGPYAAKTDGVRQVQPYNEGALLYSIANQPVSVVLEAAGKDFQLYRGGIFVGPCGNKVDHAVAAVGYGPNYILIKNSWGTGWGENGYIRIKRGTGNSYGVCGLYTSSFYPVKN

Substance | stoichiometry N [1] | inhibition of papain activity (colorimetric peptide substrate Z-Phe-Arg-pNA, pH 5.5) by 60 nM Cst-3 preincubated with equimolar heparin or HS hexasaccharide, against apo Cst-3 [2]
human cystatin C (Cst-3), E. coli expressed (from UniProt P01034 27-146) (natural protein) | 2 | 
murine cystatin C (Cst-3), E. coli expressed (from UniProt P21460 21-140) (natural protein) |  | 80%

Source: publication PMC7881039
